Reference: patent US20120321699A1

Legend:
[1] = target: Influenza HA (Wisconsin) (influenza virus); assay: Luminex assay, antibody 50 µg/ml
[2] = target: HV00046 (902114 B2 140C) (HIV-1); assay: ELISA on monomeric envelope
[3] = target: CM 243 gp120 (HIV-1); assay: ELISA on monomeric envelope
[4] = target: SSB autoantigen; assay: Athena assay, mAb 12.5 ug/ml; positive >50
[5] = target: SSA autoantigen; assay: Athena assay, mAb 12.5 ug/ml; positive >50
[6] = target: Histone autoantigen; assay: Athena assay, mAb 12.5 ug/ml; positive >50
[7] = target: RNP autoantigen; assay: Athena assay, mAb 12.5 ug/ml; positive >50
[8] = target: Sm autoantigen; assay: Athena assay, mAb 12.5 ug/ml; positive >50
[9] = target: Jo 1 autoantigen; assay: Athena assay, mAb 12.5 ug/ml; positive >50
[10] = target: centromere B autoantigen; assay: Athena assay, mAb 12.5 ug/ml; positive >50
[11] = target: Scl 70 autoantigen; assay: Athena assay, mAb 12.5 ug/ml; positive >50
[12] = target: SSB autoantigen; assay: Athena assay, mAb 6.25 ug/ml; positive >50
[13] = target: SSA autoantigen; assay: Athena assay, mAb 6.25 ug/ml; positive >50
[14] = target: Histone autoantigen; assay: Athena assay, mAb 6.25 ug/ml; positive >50
[15] = target: RNP autoantigen; assay: Athena assay, mAb 6.25 ug/ml; positive >50
[16] = target: Sm autoantigen; assay: Athena assay, mAb 6.25 ug/ml; positive >50
[17] = target: Jo 1 autoantigen; assay: Athena assay, mAb 6.25 ug/ml; positive >50
[18] = target: centromere B autoantigen; assay: Athena assay, mAb 6.25 ug/ml; positive >50
[19] = target: Scl 70 autoantigen; assay: Athena assay, mAb 6.25 ug/ml; positive >50
[20] = target: A244 gD- gp120 (HIV-1); assay: SPR
[21] = target: SSB autoantigen; assay: Athena assay, mAb 50 ug/ml; positive >50
[22] = target: SSA autoantigen; assay: Athena assay, mAb 50 ug/ml; positive >50
[23] = target: Histone autoantigen; assay: Athena assay, mAb 50 ug/ml; positive >50
[24] = target: RNP autoantigen; assay: Athena assay, mAb 50 ug/ml; positive >50
[25] = target: Sm autoantigen; assay: Athena assay, mAb 50 ug/ml; positive >50
[26] = target: Jo 1 autoantigen; assay: Athena assay, mAb 50 ug/ml; positive >50
[27] = target: centromere B autoantigen; assay: Athena assay, mAb 50 ug/ml; positive >50
[28] = target: Scl 70 autoantigen; assay: Athena assay, mAb 50 ug/ml; positive >50
[29] = target: SSB autoantigen; assay: Athena assay, mAb 25 ug/ml; positive >50
[30] = target: SSA autoantigen; assay: Athena assay, mAb 25 ug/ml; positive >50
[31] = target: Histone autoantigen; assay: Athena assay, mAb 25 ug/ml; positive >50
[32] = target: RNP autoantigen; assay: Athena assay, mAb 25 ug/ml; positive >50
[33] = target: Sm autoantigen; assay: Athena assay, mAb 25 ug/ml; positive >50
[34] = target: Jo 1 autoantigen; assay: Athena assay, mAb 25 ug/ml; positive >50
[35] = target: centromere B autoantigen; assay: Athena assay, mAb 25 ug/ml; positive >50
[36] = target: Scl 70 autoantigen; assay: Athena assay, mAb 25 ug/ml; positive >50
[37] = target: Env of HIV-1 Q23.17.N160K (HIV-1); assay: cell-based or functional assay
[38] = target: Env of HIV-1 clade A isolate Q23.17 (HIV-1); assay: cell-based or functional assay
[39] = target: Env of HIV-1 clade B isolate 7165.18 (HIV-1); assay: cell-based or functional assay
[40] = target: Env of HIV-1 JRFL.N160K.E168K (HIV-1); assay: cell-based or functional assay
[41] = target: Env of HIV-1 7165.18.N160K (HIV-1); assay: cell-based or functional assay
[42] = target: Env of HIV-1 JRFL.E168K (HIV-1); assay: cell-based or functional assay
[43] = target: Env of HIV-1 clade B isolate JRFL (virus) (HIV-1); assay: cell-based or functional assay
[44] = target: Env of HIV-1 JRCSF.N160K (HIV-1) (UniProt P20871); assay: cell-based or functional assay

Substance: CH01 (antibody)
- background substracted RFUs [1]: 0 RFU
- EC50 [2]: 63.2 µM
- EC50 [3]: 12.7 µM
- Autoreactivity (Athena) [4]: 5
- Autoreactivity (Athena) [5]: 5
- Autoreactivity (Athena) [6]: 13.5
- Autoreactivity (Athena) [7]: 4.5
- Autoreactivity (Athena) [8]: 3
- Autoreactivity (Athena) [9]: 2
- Autoreactivity (Athena) [10]: 10
- Autoreactivity (Athena) [11]: 2
- Autoreactivity (Athena) [12]: 5.5
- Autoreactivity (Athena) [13]: 5.5
- Autoreactivity (Athena) [14]: 10
- Autoreactivity (Athena) [15]: 4
- Autoreactivity (Athena) [16]: 2.5
- Autoreactivity (Athena) [17]: 2
- Autoreactivity (Athena) [18]: 7
- Autoreactivity (Athena) [19]: 1.5
- Kd [20]: 0.34 µM
- Autoreactivity (Athena) [21]: 5.5
- Autoreactivity (Athena) [22]: 8
- Autoreactivity (Athena) [23]: 26
- Autoreactivity (Athena) [24]: 8
- Autoreactivity (Athena) [25]: 4
- Autoreactivity (Athena) [26]: 3.5
- Autoreactivity (Athena) [27]: 22
- Autoreactivity (Athena) [28]: 4
- Autoreactivity (Athena) [29]: 5.5
- Autoreactivity (Athena) [30]: 6.5
- Autoreactivity (Athena) [31]: 17.5
- Autoreactivity (Athena) [32]: 5.5
- Autoreactivity (Athena) [33]: 4
- Autoreactivity (Athena) [34]: 2.5
- Autoreactivity (Athena) [35]: 14
- Autoreactivity (Athena) [36]: 3
- IC50 ug/ml (virus neutralization) [37]: > 50 µg/mL
- IC80 ug/ml (virus neutralization) [37]: > 50 µg/mL
- IC50 ug/ml (virus neutralization) [38]: 0.014 µg/mL
- IC80 ug/ml (virus neutralization) [38]: 0.035 µg/mL
- IC50 ug/ml (virus neutralization) [39]: 5.82 µg/mL
- IC80 ug/ml (virus neutralization) [39]: > 50 µg/mL
- IC50 ug/ml (virus neutralization) [40]: > 50 µg/mL
- IC80 ug/ml (virus neutralization) [40]: > 50 µg/mL
- IC50 ug/ml (virus neutralization) [41]: > 50 µg/mL
- IC80 ug/ml (virus neutralization) [41]: > 50 µg/mL
- IC50 ug/ml (virus neutralization) [42]: 0.044 µg/mL
- IC80 ug/ml (virus neutralization) [42]: 0.382 µg/mL
- IC50 ug/ml (virus neutralization) [43]: > 50 µg/mL
- IC80 ug/ml (virus neutralization) [43]: > 50 µg/mL
- IC50 ug/ml (virus neutralization) [44]: > 50 µg/mL
- IC80 ug/ml (virus neutralization) [44]: > 50 µg/mL
